In the supplement of paper PMC10724198:
± gives the standard deviation of the averaged measurements.

System: Saccharomyces cerevisiae
Test: protein stability index of tFT-peptide fusion (C-terminal peptide) (PSI (0-1 scale)); higher = more stable (slower turnover)
Details: genetic background: wild type; temperature: 30 C
Protocol: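 Multiplexed protein stability (MPS) profiling in S. cerevisiae. Random 12-aa peptides (tFT-X12 library) are fused to the C-terminus of a sfGFP-mCherry tandem fluorescent timer, after mCherry and a GGGS linker. Cells are FACS-sorted into 8 mCherry/sfGFP bins and deep-sequenced. The protein stability index (PSI) is the read-weighted bin average, scaled from 0 (unstable) to 1 (stable). Only peptides with >10 reads are reported; cells were grown at 30 °C in SC-His with glucose.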
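Note: PSI is a weighted mean of sequencing reads over stability bins, variants kept only with over 10 reads, mCherry proximal and sfGFP distal, peptide attached via GGGS linker.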

Sequence	protein stability index
PTDFTPREAIGI	0.68 ± 0.087
FLLSARGVIVFW	0.544 ± 0.018
APRRAPSRRIRL	0.748 ± 0.016
RTRPCNGPGRFG	0.724 ± 0.057
VLGLALYTLSTS	0.68 ± 0.041
MRCQFDGAVGVC	0.663 ± 0.074
PPAAPPPQPHLT	0.696 ± 0.032
KNKKKNTIKKNK	0.684 ± 0.018
VKGRKNEGPGKR	0.748 ± 0.065
VHPHPRSIKRER	0.6324 ± 0.0026
LPPPYSHTPPPR	0.581 ± 0.031
NRGRIRARVNEA	0.708 ± 0.07
FVRAVLRLSSVF	0.645 ± 0.052
FPPPPLYFPFPL	0.693 ± 0.017
SLDALVDFWSRG	0.737 ± 0.066
FFFFPFLPFSWF	0.507 ± 0.0084
KFARHVLIQSHV	0.559 ± 0.04
KSEIRDGRFPSC	0.589 ± 0.011
DQSSTIYKIIKE	0.672 ± 0.045
VFSTRLTSWYLT	0.555 ± 0.01
YLADPSPSIPIL	0.649 ± 0.02
GRRMGHQLGAGA	0.684 ± 0.039
ARRPGGGRSGGN	0.672 ± 0.039
VSRLTVIPAVQT	0.652 ± 0.027
LSPCSDFSTFDA	0.771 ± 0.12

Sequence	protein stability index
SGKSSFLGAVWV	0.711 ± 0.0061
YFSSSPVFPPHL	0.667 ± 0.16
GACILARGVRRR	0.656 ± 0.014
VAGDGYDVMDNG	0.553 ± 0.029
LPPRSRHPSPYA	0.654 ± 0.016
TAVPRARRRVVR	0.712 ± 0.018
DPFFPPYTPSPS	0.782 ± 0.049
GCEVRTFMNSSG	0.697 ± 0.016
RRWAFWGAAAAR	0.702 ± 0.013
AVPSPVTLPTTS	0.641 ± 0.066
LSTPPLPPPPPP	0.689 ± 0.058
MSVRGGEGVVGE	0.614 ± 0.025
PSPPLLPPPLYT	0.658 ± 0.014
RAPNSVPSIKKP	0.68 ± 0.098
WKVFKGLSADVS	0.669 ± 0.026
PCVPSRTISLPE	0.684 ± 0.031
IGFCVRGYGTTG	0.727 ± 0.1
SSVFRSYTSVLS	0.686 ± 0.076
EWALAESGYDEP	0.746 ± 0.05
ADMPPEFKPALS	0.637 ± 0.073
SFCGVLCIRACF	0.623 ± 0.026
SSSPTPLPRSLP	0.671 ± 0.024
PAGLITRSWNLV	0.565 ± 0.028
SRSPLCRCAPSF	0.6534 ± 0.0043
VGGGGGGCLVDC	0.653 ± 0.028

Sequence	protein stability index
PPPSPPLPPFSL	0.7056 ± 0.00078
CRMPLFGSYPLG	0.683 ± 0.022
GFYEVLRNMFVI	0.589 ± 0.035
LPLPTSPHPRPA	0.61 ± 0.046
CKIGMFIRWIGG	0.571 ± 0.04
HTYKADSLYTAR	0.748 ± 0.015
NGSLRVVSGGFC	0.63 ± 0.048
FSACSGSHVEVW	0.695 ± 0.037
TFSVPLPPPLAP	0.6573 ± 0.0038
LGRAGMWTRRGL	0.663 ± 0.034
PSPPPPPPTTVL	0.718 ± 0.021
IYVGAGCLGHTE	0.717 ± 0.068
GSAGPWSFVGDP	0.702 ± 0.085
SLRNSFPPLSSP	0.651 ± 0.07
ERSKTMVAGGEE	0.686 ± 0.062
VLFGLFAPCFLF	0.59 ± 0.019
TVPGKDEGEESV	0.696 ± 0.037
DDIGGRKLCVRG	0.6692 ± 0.0028
PLWCLPSLPPPF	0.797 ± 0.031
FSNLVSAHFGLL	0.666 ± 0.042
PPPPPHALSPPP	0.664 ± 0.011
SSFSAPPMPRSF	0.653 ± 0.028
LQRPDHPTPTPP	0.712 ± 0.017
ERRGSLSWPIPP	0.722 ± 0.036
RDNKTHSKRAYG	0.648 ± 0.024

Sequence	protein stability index
RRLAGRPVTRGA	0.667 ± 0.015
SAFPGGCCSILL	0.709 ± 0.022
FECDYLLCGAGL	0.744 ± 0.029
DPPLPAHPDVPP	0.771 ± 0.086
YKKKKKKKNNKK	0.662 ± 0.043
SSKGGWSGGGSV	0.71 ± 0.025
PLPPPGPPRLSR	0.723 ± 0.0075
LHRFYVGQLVVN	0.522 ± 0.0092
VDTTISVCCSVC	0.68339 ± 0.00029
AGFGLRGWMIPP	0.68838 ± 0.00018
REKERKRGKAVK	0.698 ± 0.019
WGGVRRHGVGGS	0.648 ± 0.1
VVLLGAVGLVER	0.679 ± 0.029
QESSDSRHATIR	0.624 ± 0.044
HPFLPLFYHFPF	0.733 ± 0.037
VACLVGVRGSWV	0.66683 ± 0.00048
VGCPKMTKIFFV	0.594 ± 0.028
PPSLRVVMVVGR	0.611 ± 0.056
KVSATIISFENI	0.709 ± 0.1
MRRKKSGPEYQR	0.678 ± 0.059
DGKTKKKTRSLR	0.652 ± 0.034
IALWLYALSLAF	0.532 ± 0.016
GGGLGGGWGVWG	0.657 ± 0.025
